Patent US6491908
Like-named read-outs stand apart in the source and are kept apart here.

Columns and labels:
Experiment in all cases: cell-based or functional assay
[1] = target: CD3 portion of the T cell receptor on Jurkat cells (human) (UniProt P07766)
[2] = target: CD3 portion of the T cell receptor on Jurkat cells (human) (UniProt P07766); remark: listed apart in the source
[3] = target: mouse class I MHC D^d (full length, without signaling molecule) (mouse) (UniProt P01900)
[4] = target: D^d/zeta chimera (mouse class I MHC D^d fused to the murine T cell receptor zeta chain) (mouse) (UniProt P24161)
[5] = target: mouse class I MHC D^d (full length, without signaling molecule) (mouse) (UniProt P01900); remark: listed apart in the source
[6] = target: D^d/zeta chimera (mouse class I MHC D^d fused to the murine T cell receptor zeta chain) (mouse) (UniProt P24161); remark: listed apart in the source

Chain of mouse class I MHC D^d (full length, without signaling molecule) (mouse) (P01900 25-365): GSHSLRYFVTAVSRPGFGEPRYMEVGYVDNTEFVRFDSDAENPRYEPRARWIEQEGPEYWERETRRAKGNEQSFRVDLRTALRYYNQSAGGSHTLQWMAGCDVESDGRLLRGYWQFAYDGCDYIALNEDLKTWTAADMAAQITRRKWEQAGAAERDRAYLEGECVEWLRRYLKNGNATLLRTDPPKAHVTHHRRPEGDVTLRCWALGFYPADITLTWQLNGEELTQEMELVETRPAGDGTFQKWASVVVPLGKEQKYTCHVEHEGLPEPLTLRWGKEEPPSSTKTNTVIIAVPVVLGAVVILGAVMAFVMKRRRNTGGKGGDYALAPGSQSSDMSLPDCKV
Chain of CD3 portion of the T cell receptor on Jurkat cells (human) (P07766 23-207): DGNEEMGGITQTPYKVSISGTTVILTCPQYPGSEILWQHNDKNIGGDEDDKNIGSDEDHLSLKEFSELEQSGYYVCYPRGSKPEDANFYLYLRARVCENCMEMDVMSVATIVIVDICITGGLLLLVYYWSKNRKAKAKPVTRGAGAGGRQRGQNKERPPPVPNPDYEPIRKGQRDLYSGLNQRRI

Proliferation (CPM) of CTLL-2 cells (IL-2 in supernatant of #19 (D^d) Jurkat cells), with PMA [1] [CPM] | Proliferation (CPM) of CTLL-2 cells (IL-2 in supernatant of #19 (D^d) Jurkat cells), without PMA [1] [CPM] | Proliferation (CPM) of CTLL-2 cells (IL-2 in supernatant of untransfected Jurkat cells), with PMA [2] [CPM] | Proliferation (CPM) of CTLL-2 cells (IL-2 in supernatant of untransfected Jurkat cells), without PMA [2] [CPM] | Proliferation (CPM) of CTLL-2 cells (IL-2 in supernatant of #19 (D^d) Jurkat cells), with PMA [3] [CPM] | Proliferation (CPM) of CTLL-2 cells (IL-2 in supernatant of #19 (D^d) Jurkat cells), without PMA [3] [CPM] | Proliferation (CPM) of CTLL-2 cells (IL-2 in supernatant of J11-6 (D^d/zeta) Jurkat cells), with PMA [4] [CPM] | Proliferation (CPM) of CTLL-2 cells (IL-2 in supernatant of J11-6 (D^d/zeta) Jurkat cells), without PMA [4] [CPM] | cellular proliferation ([3H]TdR) of spleen lymphoid cells of pD^d1 (D^d) transgenic mice, anti-D^d + anti-CD8 + anti-CD3 mAbs together [5] | cellular proliferation ([3H]TdR) of spleen lymphoid cells of pD^d1 (D^d) transgenic mice, anti-D^d + anti-CD8 mAbs together [5] | cellular proliferation ([3H]TdR) of spleen lymphoid cells of pD^d1 (D^d) transgenic mice, anti-D^d mAb alone [5] | Proliferation (CPM) of CTLL-2 cells (IL-2 in supernatant of J11-6 (D^d/zeta) Jurkat cells), with PMA [6] [CPM] | Proliferation (CPM) of CTLL-2 cells (IL-2 in supernatant of J11-6 (D^d/zeta) Jurkat cells), without PMA [6] [CPM] | cellular proliferation ([3H]TdR) of spleen lymphoid cells of D^d/zeta transgenic mice, anti-D^d + anti-CD8 + anti-CD3 mAbs together [6] | cellular proliferation ([3H]TdR) of spleen lymphoid cells of D^d/zeta transgenic mice, anti-D^d + anti-CD8 mAbs together [6] | cellular proliferation ([3H]TdR) of spleen lymphoid cells of D^d/zeta transgenic mice, anti-D^d mAb alone [6] | fold enhancement of proliferation over the D^d alone expressing cells [6] [fold] | Substance
10900 | 9530 | 2200 | 1180 |  |  |  |  |  |  |  |  |  |  |  |  |  | OKT3, an anti-CD3 antibody
 |  |  |  | 5520 | 492 | 16700 | 361 | 25000 | 1240 | 897 | 26800 | 338 | 253000 | 242000 | 303000 | 10 to 300 | anti-D^d monoclonal antibody (34-2-12)
